{
  "source": "patent CN107522783A",
  "about": "(HUABO BIOPHARM MEDICINE TECH SHANGHAI CO LTD, dated 2017)",
  "binders": {"B1": {"name": "人源化抗体 (antibody, V domains shown)", "VH": "QVQLVQSGAEVKKPGASVKVSCKASGYTFTDYAMHWVRQAPGQGLEWMGVIGPYNDNTNYAQKFQGRVTMTVDTSTSTVYMELSSLRSEDTAIYYCARGERYFDYWGQGTTVTVSS", "VL": "DIQMTQSPSTLSASVGDRVTITCRASDHINNWLAWYQQKPGKAPKLLIYGATSLETGVPSRFSGSGSGTEYTLTISSLQPDDFATYYCQQYWTIPLTFGQGTKLEIK", "notes": "Expressed in CHO-K1; also called IL17-HC5-1D4/IL17-LC5-1C5; 本发明人源化抗体"}, "B2": {"name": "嵌合抗体 (antibody, V domains shown)", "VH": "QVQLQQSGPEVVRPGVSVKISCKGSGYTFTDYAMHWVKQSHAKSLEWIGVIGPYNDNTNYNQKFKGKATMTVDKSSSTAYMEIARLTSEDSAIYYCARGERYFDYWGQGTTLTVSS", "VL": "DIQMTQSSSYLSVSLGGRVTITCRASDHINNWLAWYQQKPGNAPRLLIYGATSLETGVPSRFSGSGSGKDYTLSITSLQTEDVATYYCQQYWTIPLTFGAGTKLELK", "notes": "also called chimeric 14F10/9F6 antibody; 本发明嵌合抗体"}},
  "key": {"[1]": {"biological_target": "T1, Recombinant human IL-17A (Sino Biological, 12047-HNAS) (human, UniProt Q16552 24-155)", "T1 construct": "mature; Bought recombinant protein; also called 人IL-17A; huIL-17A", "T1 sequence (looked up)": "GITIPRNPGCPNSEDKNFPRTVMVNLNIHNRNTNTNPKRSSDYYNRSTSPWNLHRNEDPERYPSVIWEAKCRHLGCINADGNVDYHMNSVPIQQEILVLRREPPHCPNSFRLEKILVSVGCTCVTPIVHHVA", "test": "Biacore SPR, antibody captured on anti-human capture CM5 chip, IL-17A as analyte, 1:1 model"}, "[2]": {"biological_target": "T1, Recombinant human IL-17A (Sino …)", "test": "indirect ELISA, human IL-17A coated at 1 μg/ml"}, "[3]": {"biological_target": "T2, Recombinant marmoset IL-17A (Sino Biological, 90287-CNAE-100) (marmoset, UniProt A0ACM8QD00 24-153)", "T2 construct": "Bought recombinant protein; also called 狨猴IL-17A", "T2 sequence": "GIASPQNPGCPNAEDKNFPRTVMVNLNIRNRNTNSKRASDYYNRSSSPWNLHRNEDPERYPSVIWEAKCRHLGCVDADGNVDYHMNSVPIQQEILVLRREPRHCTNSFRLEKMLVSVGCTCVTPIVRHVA", "test": "indirect ELISA, marmoset IL-17A coated (Table 6)"}, "[4]": {"biological_target": "T1, Recombinant human IL-17A (Sino …)", "test": "indirect ELISA, human IL-17A coated (Table 5, species cross-reactivity)"}, "[5]": {"biological_target": "T3, Recombinant mouse IL-17A (Sino Biological, PBV10159R-010) (mouse, UniProt Q62386 26-158)", "T3 construct": "Bought recombinant protein; also called 小鼠的IL-17A", "T3 sequence (looked up)": "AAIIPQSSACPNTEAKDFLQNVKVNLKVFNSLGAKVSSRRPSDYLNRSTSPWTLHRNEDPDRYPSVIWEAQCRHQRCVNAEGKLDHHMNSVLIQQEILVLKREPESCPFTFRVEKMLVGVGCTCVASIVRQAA", "test": "indirect ELISA, mouse IL-17A coated at 1 μg/ml; paragraph 219 says 与小鼠的IL-17A无结合"}},
  "data": [
    {"binder": "B1", "values": [
      {"measurement": "Kd", "setting": "[1]", "value": 0.019, "unit": "nM"},
      {"measurement": "koff", "setting": "[1]", "value": 0.000181, "unit": "s⁻¹"},
      {"measurement": "kon", "setting": "[1]", "value": "9.56e+06", "unit": "M⁻¹ s⁻¹"}
    ]},
    {"binder": "B2", "values": [
      {"measurement": "EC50", "setting": "[2]", "value": 0.03, "unit": "µg/mL"},
      {"measurement": "EC50", "setting": "[3]", "value": 0.0264, "unit": "µg/mL"},
      {"measurement": "EC50", "setting": "[4]", "value": 0.03, "unit": "µg/mL"},
      {"measurement": "binding result", "setting": "[5]", "value": "no binding"},
      {"measurement": "Kd", "setting": "[1]", "value": 0.097, "unit": "nM"},
      {"measurement": "koff", "setting": "[1]", "value": 0.000101, "unit": "s⁻¹"},
      {"measurement": "kon", "setting": "[1]", "value": "1.04e+06", "unit": "M⁻¹ s⁻¹"}
    ]}
  ]
}
